The values that follow come from patent US20230416347A1 (UNIVERSITY OF TENNESSEE RESEARCH FOUNDATION, published 2023).

Test [1] concerns the target T1, rVλ6Wil fibrils.
T1 construct: domain: λ6 variable domain; Synthetic amyloid-like fibrils; also called rVλWIL; rVλ6Wil synthetic fibrils
Kind of test: plate assay, time-resolved fluorescence (anti-human Fc, streptavidin-europium), 4PL fit.
Description: (§1) The antibody-peptide conjugate was added to the wells in 2-fold serial dilution starting at 100 nM. For wells containing rVλ6WIL, the antibody-peptide conjugate was added to the wells in 2-fold serial dilution starting at 5 nM.

Test [2] addresses T2, Per125 wtATTR extract (human, UniProt P02766 21-147). The test is described as above.
Description: as §1
Test [3] has as its target T3, KEN hATTR extract (human, UniProt P02766 21-147). Described as above.
Description: as §1
Test [4] concerns the target T4, SHI ALλ liver extract.
T4 construct: Human AL amyloid extract; also called ALλ (SHI); ALλ SHI extract
The test is described as above.
Description: as §1

Test [5] deals with T5, TAL ALκ liver extract.
T5 construct: Human AL amyloid extract; also called ALκ (TAL); ALκ TAL
The description is as above.
Description: as §1

For test [6], the target named is T6, ALλ (BAL) amyloid extract.
T6 construct: Human AL amyloid extract; also called human AL (BAL) amyloid extract
Described as above.
Description: as §1

Test [7] has as its target T7, ALλ (GRA) amyloid extract.
T7 construct: also called ALκ(GRA) amyloid extract
The description is as above.
Description: as §1

Test [8] deals with α-synuclein synthetic amyloid-like fibrils (UniProt P37840 1-140). Described as above.
Description: (§2) The mean and standard deviation (SD) of three replicates were calculated and the potency (EC50) was determined following fitting with a sigmoidal four parameter logistic (4PL) equation with logarithmic x-axis (Prism) (FIG. 14). A non-reactive hIgG1 was used as a negative control in a parallel assay (FIG. 13B).
Test [9] concerns the target Tau 441 synthetic amyloid-like fibrils (UniProt P10636-8 1-441). Described as above.
Description: as §2
In test [10] the target is T1, rVλ6Wil fibrils. Description: pulldown assay.
For test [11], the target named is T2, Per125 wtATTR extract. Description: pulldown assay.
In test [12] the target is T3, KEN hATTR extract. Description: pulldown assay.
For another test, the target named is SNO hATTR extract (human, UniProt P02766 21-147). Description: pulldown assay.
Test [13] addresses Per253 wild type (wt) ATTR extract (human, UniProt P02766 21-147). Kind of test: pulldown assay.
Test [14] deals with T4, SHI ALλ liver extract. Description: pulldown assay.
The target in test [15] is T5, TAL ALκ liver extract. Description: pulldown assay.
A further test has as its target T8, HIG ALκ1 extract.
T8 construct: Human AL amyloid extract; also called ALκ HIG extract
Kind of test: pulldown assay.

The next test addresses T9, TYL ALλ extract.
T9 construct: Human AL amyloid extract; also called ALλ TYL extract
Kind of test: pulldown assay.

A further test concerns the target T10, CAB ALκ4.
T10 construct: AL amyloid substrate of the pulldown assay
Kind of test: pulldown assay.

Test [16] addresses T1, rVλ6Wil fibrils. Description: EuLISA on rVλ6Wil fibrils (FIG. 5A).
The target of test [17] is T11, Len(1-22) monomer peptide (Homo sapiens (Human), UniProt P06312 21-42).
T11 construct: Analyte in SPR; on beads in the pulldown assay; also called Vκ4(LEN(1-22) beads)
T11 peptide: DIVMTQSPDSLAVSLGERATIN
Description: SPR, antibody as ligand, peptide as analyte.

Test [18] concerns the target T1, rVλ6Wil fibrils. Kind of test: EuLISA on rVλ6Wil fibrils; plot with two y axes.
Test [19] deals with T1, rVλ6Wil fibrils. Description: EuLISA.
Test [20] concerns the target T2, Per125 wtATTR extract. Kind of test: EuLISA.
The target in test [21] is T4, SHI ALλ liver extract. Description: EuLISA.
Test [22] addresses T5, TAL ALκ liver extract. Description: EuLISA.
Test [23] concerns the target T1, rVλ6Wil fibrils. Kind of test: EuLISA on rVλ6Wil fibrils (FIG. 5B).

Changes are numbered by the printed parent chain. Names and notes keep the numbering of the source.

Tau 441 synthetic amyloid-like fibrils, sequence (P10636 other isoform, or with tags, fused parts or gaps limits assumed): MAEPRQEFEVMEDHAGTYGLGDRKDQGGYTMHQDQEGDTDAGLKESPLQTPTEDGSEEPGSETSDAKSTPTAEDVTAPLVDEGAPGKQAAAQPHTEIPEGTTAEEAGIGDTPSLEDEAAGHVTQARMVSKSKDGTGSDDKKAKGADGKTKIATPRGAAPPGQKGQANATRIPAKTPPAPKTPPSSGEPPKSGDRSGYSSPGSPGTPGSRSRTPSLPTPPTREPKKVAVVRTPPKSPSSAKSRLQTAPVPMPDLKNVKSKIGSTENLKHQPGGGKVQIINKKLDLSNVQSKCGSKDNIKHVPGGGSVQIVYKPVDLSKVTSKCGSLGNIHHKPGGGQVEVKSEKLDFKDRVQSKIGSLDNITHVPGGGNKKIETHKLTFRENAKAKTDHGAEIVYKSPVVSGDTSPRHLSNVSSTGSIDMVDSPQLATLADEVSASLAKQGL

B1: PF.1 (VH9-D54E/VL4-N33S-p5R with VSPSV spacer, perfusion 1) (antibody, human IgG1, kappa)
heavy: not shown
light: DVVMTQSPLSLPVTLGQPASISCRSSQSLVHRSGNTYLHWFQQRPGQSPRLLIYKVSNRFSGVPDRFSGSGSGTDFTLKISRVEAEDVGVYFCFQTTYVPNTFGGGTKLEIKRTVAAPSVFIFPPSDEQLKSGTASVVCLLNNFYPREAKVQWKVDNALQSGNSQESVTEQDSKDSTYSLSSTLTLSKADYEKHKVYACEVTHQGLSSPVTKSFNRGECVSPSVRAQRAQARQARQAQRAQRAQARQARQ
notes: Antibody-peptide fusion, p5R on the light chain through VSPSV; perfusion culture 1 day, cation exchange, over 99% intact; also called VH9-D54E/VL4-N33S-VSPSV-p5R
Regarding B1, the 50% effective concentration (EC50) stood at 0.15 nM with rVλ6Wil fibrils [1]; 0.18 nM with Per125 wtATTR extract [2]; 0.45 nM in the test with KEN hATTR extract [3]; 0.32 nM with SHI ALλ liver extract [4]; 0.4 nM with TAL ALκ liver extract [5]; 0.36 nM in test [6]. Besides, the half-maximal effective concentration (EC50) in test [7] was determined as 0.6 nM.

B2: PF.7 (VH9-D54E/VL4-N33S-VSPSV-p5R collected after 7 days of perfusion culturing) (antibody, human IgG1, kappa)
heavy: not shown
light: B1 light
notes: Same construct as PF.1, perfusion culture for 7 days
For the molecule B2, the concentration giving a half-maximal response (EC50) in [8] amounted to 127 nM; in test [9] it was 1300 nM.

B3: VH9/VL4 (antibody, V domains shown)
VH: QVQLQESGPGLVKPSETLSLTCTVSGFSLSSYGVSWIRQPPGKGLEWLGVIWGDGSTNYHPNLMSRVTISVDTSKSQVLFKLSSVTAADTAVYYCATLDYWGQGTSVTVSS
VL: DVVMTQSPLSLPVTLGQPASISCRSSQSLVHRNGNTYLHWFQQRPGQSPRLLIYKVSNRFSGVPDRFSGSGSGTDFTLKISRVEAEDVGVYFCFQTTYVPNTFGGGTKLEIK
notes: Humanized 11-1F4; also called VH9/VL4 parent
In the case of B3, the percent bound with rVλ6Wil fibrils [10] amounted to 10.4%; with Per125 wtATTR extract [11], 1.36%; with KEN hATTR extract [12], 0.61%; in the test with SNO hATTR extract it was 0.41%; in [13], 0.8%; with SHI ALλ liver extract [14], 0.68%. The percent bound in the test with TAL ALκ liver extract [15] was found to be 0.72%; with HIG ALκ1 extract, 0.19%; with TYL ALλ extract, 0.56%; with CAB ALκ4 it was 2.43%. This molecule registered a 50% effective concentration (EC50) with rVλ6Wil fibrils [16] of 7 nM. Further, the affinity in test [17], expressed as Kd, was 43 nM. In addition, the koff in test [17] was found to be 0.0026 s⁻¹. In [17], this molecule came in with an association rate constant (kon) of 60400 M⁻¹ s⁻¹. In addition, in the test with rVλ6Wil fibrils [18], the half-maximal effective concentration (EC50 (read off the curve)) is roughly 7 nM.

B4: m11-1F4 (antibody, V domains shown)
VH: QVQLKESGPGLVAPSQSLSITCTVSGFSLSSYGVSWVRQPPGKGLEWLGVIWGDGSTNYHPNLMSRLSISKDISKSQVLFKLNSLQTDDTATYYCVTLDYWGQGTSVTVSS
VL: B3 VL with S7T, T14S, Q17D, P18Q, F41Y, Q42L, R44K, R50K, V88L, V90L
notes: Murine monoclonal antibody; also called murine parent
Consider B4, for which the EC50 with rVλ6Wil fibrils [19] came to 543 nM; with Per125 wtATTR extract [20] it was 1880 nM. Also, the LogEC50 was 6.26 -log(M) with rVλ6Wil fibrils [19], 5.72 -log(M) with Per125 wtATTR extract [20], ~4.45 -log(M) with SHI ALλ liver extract [21] and ~3.03 -log(M) with TAL ALκ liver extract [22]. The Max was 184 in the test with rVλ6Wil fibrils [19], 209 with Per125 wtATTR extract [20], roughly 1510 in the test with SHI ALλ liver extract [21] and roughly 35100 with TAL ALκ liver extract [22].

B5: chimeric antibody c11-1F4 (antibody, V domains shown)
VH: B4 VH
VL: B3 VL with S7T, T14S, Q17D, P18Q, F41Y, Q42L, R44K, R50K, V88L, V90L
notes: Chimeric form of 11-1F4; also called ch11-1F4; chimeric (c) 11-1F4
In the case of B5, the 50% effective concentration (EC50) in the test with rVλ6Wil fibrils [19] was 291 nM; in the test with Per125 wtATTR extract [20], 381 nM; with SHI ALλ liver extract [21], 256 nM; with rVλ6Wil fibrils [16], roughly 72 nM; with rVλ6Wil fibrils [23], roughly 100 nM. In addition, the LogEC50 in the test with rVλ6Wil fibrils [19] is 6.54 -log(M); in the test with Per125 wtATTR extract [20], 6.42 -log(M); with SHI ALλ liver extract [21] it was 6.59 -log(M); with TAL ALκ liver extract [22], ~0.599 -log(M). Further, the Max with rVλ6Wil fibrils [19] was 63.9; with Per125 wtATTR extract [20], 71.1; with SHI ALλ liver extract [21], 51.3; with TAL ALκ liver extract [22] it was roughly 17800.

B6: VH9-M64V + VL4 (antibody, V domains shown)
VH: B3 VH with M64V
VL: B3 VL
notes: Humanized 11-1F4 variant
In [17], B6 displayed an equilibrium dissociation constant (Kd) of 21.8 nM, a koff of 0.00052 s⁻¹ and a kon of 23800 M⁻¹ s⁻¹.

B7: VH9-M64I + VL4 (antibody, V domains shown)
VH: B3 VH with M64I
VL: B3 VL
notes: Humanized 11-1F4 variant
In test [17], B7 had an equilibrium dissociation constant (Kd) of 20.7 nM, a dissociation rate constant (koff) of 0.00192 s⁻¹ and a kon of 92900 M⁻¹ s⁻¹.

B8: VH9-M64A + VL4 (antibody, V domains shown)
VH: B3 VH with M64A
VL: B3 VL
notes: Humanized 11-1F4 variant
As to B8, in test [17], the Kd was determined as 13.3 nM, the dissociation rate constant (koff) was 0.00104 s⁻¹ and the kon came out at 77900 M⁻¹ s⁻¹.

B9: VH9-M64L + VL4 (antibody, V domains shown)
VH: B3 VH with M64L
VL: B3 VL
notes: Humanized 11-1F4 variant
In test [17], B9 yielded a Kd of 22.4 nM, a koff of 0.00208 s⁻¹ and a kon of 93000 M⁻¹ s⁻¹.
